Measured values from patent US20250051455A1 (Hoffmann-La Roche, published 2025).
Residue numbers refer to the chain shown, from its start. Each block holds one binder with its values, some of them ahead of it.

How the values were obtained:
[1] = molecular target: T1, recombinant soluble human HLA-G β2M MHC class I complex, monomer (human); experiment: blocking ELISA on biotinylated wt HLA-G; competitor c-myc ILT-2
T1 construct: His tagged; biotinylated where coated on streptavidin plates, non-biotinylated in SPR; also called HLA-G-0003; wt HLA-G (monomer)
Method: Streptavidin coated plates (Nunc, MicroCoat #11974998001) were coated with 25 µl/well biotinylated human wt HLA-G at a concentration of 500-1000 ng/ml and incubated at 4° C. overnight. After washing (3×90 μl/well with PBST-buffer) 25 μl anti-HLA-G samples were added in decreasing concentrations starting at 10 or 3 μg/ml, then diluted in 1:3 or 1:2 steps and incubated 1 h at RT. After washing (3×90 μl/well with PBST-buffer) 25 μl/well c-myc-tagged recombinant ILT-2 receptor was added at a concentration of 200 ng/ml and incubated for 1 h at room temperature. […] After washing (3×90 μl/well with PBST-buffer), 25 μl/well TMB substrate (Roche, 11835033001) was added and incubated until OD 2-3. Measurement took place on a Tecan Safire 2 instrument at 370/492 nm
The table above summarizes the extent of ILT-2 and ILT-4 blocking of different antibodies bound to HLA-G at a concentration of 3 μg/ml, relative to an HLA-G:receptor interaction that is not blocked. HLA-G-0090 was tested in a separate experiment for ILT2 blockade, ILT4 blocking was not assessed

[2] = molecular target: T1, recombinant soluble human HLA-G β2M MHC …; experiment: competition ELISA, one antibody concentration; competitor coated ILT2-Fc
Method: (§1) The ELISA was set up by coating the Fc tagged ILT2 and ILT4 respectively to Maxisorp microtiter plates. After incubation and washing steps, the respective antibodies were added at a concentration of 100 nM. Soluble His tagged monomeric, dimeric or trimeric HLA-G was added to the wells. After incubation and washing steps, detection of bound receptor was carried out by anti-His-antibody-POD conjugates.
(§2) The above tables summarize the blocking of interaction between rec. HLA-G proteins (monomer and oligomers) to its receptors ILT2 and ILT4 by the described HLAG antibodies at a concentration of 110 nM (*HLAG-0090 was tested at a concentration of 44 nM) as assessed by ELISA. Shown are the % inhibitions of the HLA-G/receptor interaction (for ILT2 and ILT4). The less pronounced ILT4 inhibition depends on the major β2M dependent interaction of this receptor.

[3] = molecular target: T2, recombinant soluble human HLA-G β2M MHC class I complex, dimer (human); experiment: as above
T2 construct: Non-biotinylated; also called HLA-G Dimer; dimeric HLA-G
Method: as §1, §2

[4] = molecular target: T3, modified human HLA-G β2M MHC class I complex (HLA-G specific amino acids replaced by HLA-A consensus amino … (human)); experiment: ELISA, biotinylated degrafted HLA-G on streptavidin plate (no EC50; Max. OD 0.13)
T3 construct: Counter antigen: single-chain fusion of peptide, beta-2 microglobulin and HLA-G in which 14 HLA-G unique surface positions were mutated to an HLA-A consensus; also called degrafted HLA-G; HLA-G-0007
Method: (§3) Streptavidin coated plates (Nunc, MicroCoat #11974998001) were coated with 25 μl/well biotinylated human degrafted HLA-G at a concentration of 250 ng/ml and incubated at 4° C. overnight. After washing (3×90 μl/well with PBST-buffer) 25 μl anti-HLA-G samples (1:3 dilution in OSEP buffer) or rat serum (1:600 dilution in OSEP) were added and incubated 1 h at RT. After washing (3×90 μl/well with PBST-buffer) 25 μl/well of a mixture of goat-anti-rat IgG1-POD (Bethyl #A110-106P), goat-anti-rat IgG2a-POD (Bethyl #A110-109P) and goat-anti-rat IgG2b-POD (Bethyl #A110-111P) 1:10000 in OSEP was added and incubated at RT for 1 h on shaker. After washing (6×90 μl/well with PBST-buffer) 25 μl/well TMB substrate (Roche, 11835033001) was added and incubated until OD 2-3. Measurement took place on a Tecan Safire 2 instrument at 370/492 nm.

[5] = molecular target: T3, modified human HLA-G β2M MHC class I …; experiment: ELISA, biotinylated degrafted HLA-G on streptavidin plate (no EC50; Max. OD 0.15)
Method: as §3

[6] = molecular target: T1, recombinant soluble human HLA-G β2M MHC …; experiment: competition ELISA, antibody 44 nM; competitor coated ILT2-Fc
Method: as §1, §2

[7] = molecular target: T2, recombinant soluble human HLA-G β2M MHC …; experiment: as above
Method: as §1, §2

[8] = molecular target: T4, recombinant soluble human HLA-G β2M MHC class I complex, trimer (human); experiment: as above
T4 construct: Non-biotinylated; also called HLA-G Trimer; trimeric HLA-G
Method: as §1, §2

[9] = molecular target: T1, recombinant soluble human HLA-G β2M MHC …; experiment: competition ELISA, antibody 44 nM; competitor coated ILT4-Fc
Method: as §1, §2

[10] = molecular target: T2, recombinant soluble human HLA-G β2M MHC …; experiment: as above
Method: as §1, §2

[11] = molecular target: T4, recombinant soluble human HLA-G β2M MHC …; experiment: as above
Method: as §1, §2

[12] = molecular target: T3, modified human HLA-G β2M MHC class I …; experiment: ELISA, biotinylated degrafted HLA-G on streptavidin plate (no EC50; Max. OD 0.2)
Method: as §3

% inh. ILT2 (3 µg/ml antibody) [1]: 17.4%
% inhibition of ILT2 binding [2]: -437%
% inhibition of ILT2 binding [3]: 23%
binding result [5]: no binding
B3: HLA-G-0041 (antibody, V domains shown)
VH: EVQLLESGGGLVQPGGSLRLSCAASGFTFSTYGMSWVRQAPGKGLEWVSVISGGGVSTYYADSVKGRFTISRDNSKNTLYLQMNRLRAEDTAVYYCAKDGSYNYGYGDYFDYWGQGTLVTVSS
VL: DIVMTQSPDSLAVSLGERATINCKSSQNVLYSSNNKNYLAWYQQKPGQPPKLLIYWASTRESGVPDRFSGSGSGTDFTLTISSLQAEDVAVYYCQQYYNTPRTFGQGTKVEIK
notes: Human antibody from humanized OmniRat (OMT) rats

% inhibition of ILT2 binding [6]: 92%
% inhibition of ILT2 binding [7]: 100%
% inhibition of ILT2 binding [8]: 99%
% inhibition of ILT4 binding [9]: 31%
% inhibition of ILT4 binding [10]: 31%
% inhibition of ILT4 binding [11]: 47%
binding result [12]: no binding
B4: HLA-G-0090 (antibody, V domains shown)
VH: QVQLQQSGPGLLKPSQTLSLTCAISGDSVSSNRAAWNWIRQSPSRGLEWLGRTYYRSKWYNDYAVSVQGRITLIPDTSKNQFSLRLNSVTPEDTAVYYCASVRAVAPFDYWGQGVLVTVSS
VL: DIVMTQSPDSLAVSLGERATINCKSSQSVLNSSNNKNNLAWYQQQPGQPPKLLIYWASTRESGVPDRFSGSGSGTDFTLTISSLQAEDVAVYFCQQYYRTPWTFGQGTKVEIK
notes: as for B3

Continued, binder first:

B1: HLA-G-0031 (antibody, V domains shown)
VH: QVKLMQSGAALVKPGTSVKMSCNASGYTFTDYWVSWVKQSHGKRLEWVGEISPNSGASNFDENFKDKATLTVDKSTSTAYMELSRLTSEDSAIYYCTRSSHGSFRWFAYWGQGTLVTVSS
VL: AIVLNQSPSSIVASQGEKVTITCRASSSVSSNHLHWYQQKPGAFPKFVIYSTSQRASGIPSRFSGSGSGTSYSFTISRVEAEDVATYYCQQGSSNPYTFGAGTKLELK
notes: Rat monoclonal antibody obtained from CD rats
% inh. ILT2 (3 µg/ml antibody) [1]: 72.8%
% inhibition of ILT2 binding [2]: 101%
% inhibition of ILT2 binding [3]: 99%
binding result [4]: no binding

B2: HLA-G-0039 (antibody, V domains shown)
VH: B3 VH with T31S, G33A, S35N, G54S, K76R, Y80S, R85S
VL: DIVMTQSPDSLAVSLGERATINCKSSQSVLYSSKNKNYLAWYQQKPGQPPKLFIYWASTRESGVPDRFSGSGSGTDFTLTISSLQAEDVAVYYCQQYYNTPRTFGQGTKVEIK
notes: as for B3
% inh. ILT2 (3 µg/ml antibody) [1]: 14%
% inhibition of ILT2 binding [2]: -450%
% inhibition of ILT2 binding [3]: 25%
binding result [4]: no binding
